Assay results: IntAct's records for PubMed 17855368

B1: DNA-binding protein inhibitor ID-1 (Homo sapiens), P41134 (parent)
chain: MKVASGSTATAAAGPSCALKAGKTASGAGEVVRCLSEQSVAISRCAGGAGARLPALLDEQQVNVLLYDMNGCYSRLKELVPTLPQNRKVSKVEILQHVIDYIRDLQLELNSESEVGTPGGRGLPVRAPLSTLNGEISALTAEAACVPADDRILCR

Variants of: B1
Settings: with cav1_human CAV1, Q03135
Chain of cav1_human CAV1, Q03135 (Q03135 whole entry): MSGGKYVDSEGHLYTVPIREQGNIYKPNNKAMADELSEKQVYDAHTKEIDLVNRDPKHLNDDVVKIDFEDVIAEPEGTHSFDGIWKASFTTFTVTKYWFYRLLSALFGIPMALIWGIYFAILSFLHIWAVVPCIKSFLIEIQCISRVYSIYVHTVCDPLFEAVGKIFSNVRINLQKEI

| Variant | effect of a mutation on the interaction |
| --- | --- |
| MKVASGSTATAAAGPSCALKAGKTASGAGEVVRCLSEQSVAISRCAGGAGARLPALLDEQQVNVLLYDMNGCYSRLKELVPTLPQNRKVSKVEILQHVIDDIRDLQLELNSESEVGTPGGRGLPVRAPLSTLNGEISALTAEAACVPADDRILCR [Y101D] | decreasing interaction |
